# From the nanobody polyreactivity screen of Harvey et al. (2022)
# Test: yeast display, Sf9 membrane polyspecificity reagent, FACS + sequencing; frameworks hold sequencing errors
# In short: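 A synthetic nanobody library was expressed on Saccharomyces cerevisiae BJ5465 by galactose induction for 36–48 hours. The library was stained for 1 hour at 4 °C with 10% biotinylated, detergent-solubilized Sf9 membrane reagent and enriched with streptavidin microbeads before FACS. Low and high (top ~1%) gates were set on anti-HA fluorescence for expression and streptavidin fluorescence for reagent binding, and each polyreactivity label reflects the gate of origin.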
row,Sequence,polyreactivity (PSR sort gate)
1,QVQLVESGGGLVQAGGSLRLSCAASGSIFGINAMGWYRQAPWKERELVAAITSDGSTYYADSVKGRFTISRDNAKNTVYLQMNSLNPEDTAVYYCAAYSWYYTSRYDYWGQGTQVTVSS,low polyreactivity
2,QVQLVESGGGLVQAGGSLRLSCAASGSIFGINGMGWYRQAPGKERELVAAISDSGGSTYYADSVKGRFTISRDNAKNTVYLQMNSLKPEDTAVYYCAAETYWYFAQFYDLYSYDYWGQGTQVTVSS,low polyreactivity
3,QVQLVESGGGLVQAGGSLRLSCAASGSIFGIYAMGWYRQAPGKERELVAAISSRAGSTNYADSVKGRFTISRDNAKNTVYLKMNSLKPEDTAVYDCNAKFSPPRRWPLRDYWGQGTQVTVSS,high polyreactivity
4,QVQLVESGGGLVQAGGSLRLSCAASGSIFGKYAMGWYRQAPGKERELVAAISERTGRTYYADSVKGRFTISRDNAKNTVYLQMNSLKPEDTAVYYCNVGPLYSGWSTYGYDYWGQGTQVTVSS,high polyreactivity
5,QVQLVESGGGLVQAGGSLRLSCAASGSIFGKYAMGWYRQAPGKERELVAAISGRGGGTYYADSVKGRFTISRDNAKNTVYLQMNSLKPEDTAVYYCNAYYSRLRYDYWGQGTQVTVSS,high polyreactivity
6,QVQLVESGGGLVQAGGSLRLSCAASGSIFGLNAMGWYRQAPGKERELVARISTGSSTNYADSVKGRFTISRDNAKNTVYLQMNSLKPEDTAVYYCAADVDGGRHYGYWGQGTQVTVSS,low polyreactivity
7,QVQLVESGGGLVQAGGSLRLSCAASGSIFGLNDMGWYRQAPGKERELVAGISSGGSTYYADSVKGRFTISRDNAKNTVYLQMNSLKPEDTAVYYCATEGRWPNASYGDYDYWGQGTQVTVSS,low polyreactivity
8,QVQLVESGGGLVQAGGSLRLSCAASGSIFGLYAMGWYRQAPGKERELVAAISASGGSTYYADSVKGRFTISRDNAKNTVYLQMNSLKPEDTAVYYCAKKQRYYGRMDYWGQGTQVTVSS,high polyreactivity
9,QVQLVESGGGLVQAGGSLRLSCAASGSIFGLYTMGWYRQAPGKERELVAAISSVGSTYYADSVKGRFTISRDNAKNTVYLQMNSLKPEDTAVYYCNVYSRTHYQTYTDDYWGQGTQVTVSS,high polyreactivity
10,QVQLVESGGGLVQAGGSLRLSCAASGSIFGNAMGWYRQAPGKEREFVAAISSSGSSTYYADSVKGRFTISRDNAKNTVYLQMNSLKPEDTAVYYCAKRRRSAAPKYDYWGQGTQVTVSS,high polyreactivity
11,QVQLVESGGGLVQAGGSLRLSCAASGSIFGPSAMGWYIQAPGKERDLVAGITRSVGSTYYADSVKGRFTISRDNAKNTVYLQMNSLKPEDTADYYCNAKWLYSRWAGYDYWGQGTQVTVSS,low polyreactivity
12,QVQLVESGGGLVQAGGSLRLSCAASGSIFGPYAMGWYRPAPGKEREFVAAISGSGGSTYYEDSVKGRFTISRDNAKNTVYLQKNSLTPEDTAVYYCAARQAYVNRGRFRGATLDYWGQGTQVTVSS,high polyreactivity
13,QVQLVESGGGLVQAGGSLRLSCAASGSIFGPYAMGWYRQAPGKERELVAAISLGGGSTSYADSVKGRFTISRDNAKNTVYLQMNSLKPEDTAVYYCATEDFRTDTGMYYWGQGTQVTVSS,low polyreactivity
14,QVQLVESGGGLVQAGGSLRLSCAASGSIFGQYAMGWYRQAPGKERELVAAISTRGGSTRYADSVKGRFTISRDNAKNTVYLQMNSLKPEDTAVYYCAARPGYLYDYWGQGTQVTVSS,high polyreactivity
15,QVQLVESGGGLVQAGGSLRLSCAASGSIFGQYAMGWYRQAPGKERELVAAITDTGDSTYYADSVMGRFTISRDNAKNTVYLQMNSLKPEDTAVYYCAADVYYAFGSMYYWGQGTQVTVSS,low polyreactivity
16,QVQLVESGGGLVQAGGSLRLSCAASGSIFGRNAMGWYRQAPGKDRELVAAINSGGSTNYADSVKGRFTISRYNAKNTVYLQMNSLKPEDTAVYYCAARTYSSGRYYGYVAFYYWGQGTQVTVSS,high polyreactivity
17,QVQLVESGGGLVQAGGSLRLSCAASGSIFGRYAMGWYRQAPGKERELVAAISYSGGSTYYADSVKGRFTISRDNAKNTVYLQMNSLKPEDTAFYYCAAETSYYTRWFDGHYYYWGQGTQVTVSS,high polyreactivity
18,QVQLVESGGGLVQAGGSLRLSCAASGSIFGRYGAMGWYRQAPGKDRELVAAIRTSGVSTYYADSVKGRYTISRDNAKKTVYLQMNSLKPEDTAVYYCAKGYTSYNLGKYGYWGQGTQVTVTS,high polyreactivity
19,QVQLVESGGGLVQAGGSLRLSCAASGSIFGRYVMGWYRQAPGKERELVATISSGGSTYYADSVKGRFTISRDNAKNTVYLQMNSLKPEDTAVYYCAASYSRFVDWIGDPGYDYWGQGTQVTVSS,low polyreactivity
20,QVQLVESGGGLVQAGGSLRLSCAASGSIFGSNAMGWYRQAPGKEREFVAAIDWGGTITYYADSVKGRFTISRDNAKNTVYLQMNSLKPEDTAVYYCAADPTYPYGYWGQGTQVTVSS,low polyreactivity
21,QVQLVESGGGLVQAGGSLRLSCAASGSIFGSNAMGWYRQAPGKEREFVAVITWRVGDTYYADSVKGRFTISRDNAKNTVYLQMYSLKPEDTAVYYCNVDWKVYGAPDYRIAWKYDYWGQGTQVTVSS,low polyreactivity
22,QVQLVESGGGLVQAGGSLRLSCAASGSIFGSNAMGWYRQAPGKERELVAAISSGSTYYADSVKGRFTISRDNAKNTVYLQMNSLKPEDTAVYYCNARSLLYEFDYWGQGTQVTVSS,low polyreactivity

row,Sequence,polyreactivity (PSR sort gate)
1,QVQLVESGGGLVQAGGSLRLSCAASGSIFGSNAMGWYRQAPGKERELVAVITNGGRTYYADSVKGRFTISRDNAKNSVYLQMNSLNPEDTAVYYCAASRVYGWYGSYSTYGSWGQGTQVTVSS,high polyreactivity
2,QVQLVESGGGLVQAGGSLRLSCAASGSIFGSNAMGWYRQARGKERELVASISKRGGSTYYADSVKGRFTISRDNAKNTVYVQMNSLKPEDTAVYSCAARSYYNGKISRVGYWGQGTQVTVSS,high polyreactivity
3,QVQLVESGGGLVQAGGSLRLSCAASGSIFGSYAMGWYRQAPGKERELVAAIRSGGGTYYADSVKGRFTISRDNAKNTVYLQMNSLKPEDTAVYYCAAGDGFYFSFYIYDYWGQGTQGTVSS,low polyreactivity
4,QVQLVESGGGLVQAGGSLRLSCAASGSIFGSYAMGWYRQAPGKERELVAAISRSGGRTYYADSVKGRFTISRDNAKYTVYLQMNSLKPEDTAVYYCAADTYIGYDYWGQGTQVTVSS,high polyreactivity
5,QVQLVESGGGLVQAGGSLRLSCAASGSIFGTNGMGWYRQAPGKERELVAAITRRGGSTYADSVKGRFTISRDNAKNTVYLQMNSLKPEDTAVYYCAVDQGYVVRLAWIYGYWGQGTQVSVSS,low polyreactivity
6,QVQLVESGGGLVQAGGSLRLSCAASGSIFGTNTMGWYRQAPGKEREFVAVITGSTTSTYYADSVKGRFTISRDNAKNTVYLQMNSLKPEDTAVYYCPTDYWWDLFEYDYWGQGTQVTVSS,high polyreactivity
7,QVQLVESGGGLVQAGGSLRLSCAASGSIFGTYAMGWYRQAPGKAREFVADISAIGTSTYYADSVKGRFTISRDNAKNTVYLQMNSLKPEDTAVYYCAAESFDTVEYDYWGQGTQVTVSS,low polyreactivity
8,QVQLVESGGGLVQAGGSLRLSCAASGSIFGTYPMGWYRQAPGKERELVAAITRRGGSTFYADSVKGRFTISRDNAKNTVYLQMNSLKPEDTAVYYCAAPPYYWGQGTQVTVSS,high polyreactivity
9,QVQLVESGGGLVQAGGSLRLSCAASGSIFGTYTMGWYRQAPGKERELVAAISRSGTSTYYADSVKGRFTISRDNAKNTVYLQMNSLKPEDTAVYYCAASPDPYWRRMDYWGQGTQVTVSS,high polyreactivity
10,QVQLVESGGGLVQAGGSLRLSCAASGSIFGTYTMGWYRQAPGKERELVASISRRGGSTYYADSVKGRFTISRDNAKNTVYLQMNSLKPEDTAVYYCAKPVYYLPGEYDYWGQGTQVTVSS,high polyreactivity
11,QVQLVESGGGLVQAGGSLRLSCAASGSIFGVNAMGWYRQAPGKERELVAAISRGTSTSYADSVKGRFTISRDNAKNTVYLQMNSLKPEDTAVYYCAAEVYWRGWWYGYWGQGTQVTVSS,high polyreactivity
12,QVQLVESGGGLVQAGGSLRLSCAASGSIFGVYAMGWYRQAPGKERELVAAISQSGGRTYYADSVKGRFTISRDNAKNTVYLQMNSLKPEDTAVYYCAAVVFNVYRRYWGQGTQVTVSS,high polyreactivity
13,QVQLVESGGGLVQAGGSLRLSCAASGSIFGVYDMGWYRQAPGKERELVAVINSNGGSTYYADSVKGRFTISRDNAKNTVYLQMNSLNPEDTAVYYCAADYQSYVYIGYGYWGQGTQVTVSS,low polyreactivity
14,QVQLVESGGGLVQAGGSLRLSCAASGSIFGVYTMGWYRQAPGKERELVAAITSAGSTYAYSVKGRFTISRDNAKNTVYLQMNSLKPEDTAVYYCNAQSVLLSLRVELREPHEYWGQGTQVTVSS,low polyreactivity
15,QVQLVESGGGLVQAGGSLRLSCAASGSIFGWNTMGWYRQAPGKERELVAAITWTGGRTYYADSVKGRFTISRDNAKNTVYLQMNSLKPEDTAVYYCNALRVIRGGIKGDYWGQGTQVTVSS,high polyreactivity
16,QVQLVESGGGLVQAGGSLRLSCAASGSIFGWYAMGWYRQAPGKERELVAAISSSDGSTYYADSVKGRFTISRDNAKNTVYLQMNSLKPEDTAVYYCATDSAFTYAQYDYWGQGTQVTVSS,low polyreactivity
17,QVQLVESGGGLVQAGGSLRLSCAASGSIFGWYAMGWYRQAPGKVRELVATITDRGGRTYYADSVKGRFTISRDNAKNTVYLQMNSLTPEDTAVYDCAADAWPFEAESDSWGQGTQVTVSS,low polyreactivity
18,QVQLVESGGGLVQAGGSLRLSCAASGSIFGWYVMGWYRQEAGKERELVAANSSVGSTYYADSVKGRFTISRDNAKNTVYLQMNSLKPEDTAVYYCAKLRYPYLFWDDSEYWGQGTQVTVSS,low polyreactivity
19,QVQLVESGGGLVQAGGSLRLSCAASGSIFGYAMGWYRQAPGKARELVAAISFSGVSTYYADSVKGRFTITRDNAKNTVYLQMNSLKPEDTAGYYCNAYSDGDEDYWGQGTQVNVSS,low polyreactivity
20,QVQLVESGGGLVQAGGSLRLSCAASGSIFGYAMGWYRQAPGKERELVAAITVSGGRTYYADSVKGRFTISRDNAKNTVYLQMNSLKPEDTAVYYCAAYYIKGYSPGYWGQGTQVTVSS,high polyreactivity
21,QVQLVESGGGLVQAGGSLRLSCAASGSIFGYNAMGGYRHAPGKEREFVAAINSGGSTYYADSVKGRFTISRDNAKITVYLQLNSLKPEDTAVYYCRRRNVYSTRRYEYWGQGTQVTVSS,high polyreactivity
